Laboratory results: patent publication US9447158B2

Molecular target: MAPKAP Kinase II (MK2)

B1: WLRRIKA (peptide)
peptide: WLRRIKA
% of … [SEQ ID NO: 115] Reaction Velocity at an Inhibitor Concentration of 100 µM: 394%
